The target of series [1] is DNA. The settings on record: wild-type enzyme; Southworth et al. 1996; read-out: Kd (affinity for DNA); cited from earlier work.
Series [2] deals with 10A hairpin DNA. In words: Single base incorporation assay, crude enzyme preparations (normalised concentrations). Type of series: biochemical. Particulars: first base incorporation of ffTTP. How it is done:
The activity of the crude enzyme preparations (normalised concentrations) was measured using the single base incorporation assay as described in WO 2005/024010. 10 minute incubations were run with either 30 or 3 μg/ml crude enzyme preparation in the presence of 2 μM ffT-N3-cy3 and 20 nM 10A hairpin DNA (^32P-labelled), aliquots of the reaction mixture were withdrawn at 0, 30, 60, 180 and 600 s and run on a 12% acrylamide gel.
The band intensities were quantified using Imagequant and the fluorescence intensity plotted versus incubation time to generate the time-courses shown in FIG. 4.

Series [3] has as its system ffT-N3-cy3 incorporation into A template hairpin oligo 815. In words: Incorporation kinetics of ffT-N3-cy3 (NUNC tube assay, Michaelis plots). Type of series: biochemical. Particulars: 45° C., [DNA]<<[pol] or [ffNTP]. How it is done: The kinetic characterization of the enzymes was conducted using NUNC tube assay and involved the measurement of rate constants for the first order incorporation of ffT N3 cy3 where [DNA]<<[pol] or [ffNTP], at a variety of [ffTTP]. Below is described the methodology used for each of the three polymerases tested.
Six (1×8) NUNC nucleolink strips were functionalized with 2 pmoles of 5′-amino A template hairpin oligo 815 (5′ H2N-[…] ATGCACATCAGCG-3′) (SEQ ID NO: 18), according to the manufacturer's protocol.
Each strip was employed for a time-course experiment at a particular (ffT-N3-cy3). […]
Time-courses were initiated by addition of a 20 μl aliquot of 2× enzymology mix (X μM ffT-N3-cy3, 1.1 μM polymerase in enzymology buffer) pre-equilibrated at 45° C. for 2 minutes using an 8-channel multipipette in order to start reactions in individual wells at identical time-points. […] After reactions in all 8 wells stopped, strips were washed with […] high salt wash (10 mM Tris pH 8.0, 1 M NaCl, 10 mM EDTA) and then […] MilliQ water and then scanned on a Typhoon fluorescence imager (Cy3 filter, PMT=500 V). Fluorescence intensities in each well were quantified using Imagequant. Plotting the variation in Cy3 fluorescence intensity vs. time generates time-course graphs. […]

For series [4], the system named is surface-coupled A-template hairpin (oligo 815). In words: NUNC tube assay using crude protein preparation: incorporation of ffTTP into surface-coupled hairpin. Type of series: biochemical. Particulars: crude enzyme, 5 μM ffT-N3-647, 45° C., 30 minutes; samples not normalised for concentration. As for the experimental part:
Small 5 ml cultures of the mutant enzymes (along with a culture of YAV C223S exo- for direct comparison) were taken through a quick purification as outlined in WO 2005/024010 up until the heat treatment step. At this point, the samples were considered to be sufficiently pure to test their activity.
The buffers for each of the crude preparations were exchanged into enzymology buffer (50 mM Tris pH 8.0, 6 mM MgSO4, 1 mM EDPA, 0.05% Tween20) using an S300 gel filtration spin-column. The samples were not normalised for concentration. The test employed was a simple incorporation of ffTTP into surface-coupled A-template hairpin. 2 pmoles of 5′-amino oligo 815 (5′-[…] […]-3′) (SEQ ID NO: 17) was coupled to a NUNC-nucleolink strip according to the manufacturers protocol.
Once washed, each well was incubated with a 20 µl aliquot of a crude enzyme preparation (identity of enzyme listed below) and 5 µM ffT-N3-647. The strip was then incubated at 45° C. for 30 minutes. The experiment was performed in duplicate. Upon completion of the 30 minute incubation, wells were washed with 3×100 µl of high salt wash buffer (10 mM Tris pH 8.0, 1M NaCl, 10 mM EDTA) and then 3×100 µl of MilliQ water. Strips were scanned on a typhoon fluorescence imager CY5 filter, PMT=450 V).
The fluorescence density is proportional to the amount of ffTTP incorporation—the darker the well, the greater the level of incorporation. […]

Series [5] deals with 10A hairpin DNA. The series is described as follows: Single base incorporation assay for purified polymerases where [DNA] is greater than [pol]. Type of series: biochemical. Particulars: 4 nM purified enzyme, 2 μM ffT-N3-cy3. How it is done:
The activity of the purified enzyme preparations of Clone 9 polymerase (YAV C223S exo-) and the thumb sub-domain mutants K705A, R713A and R743A was measured using the single base incorporation assay as described in WO 2005/024010. The experiment was carried out such that the respective concentrations of DNA and polymerase were at a ratio of approximately 5:1. Thus, the ability of the enzyme to incorporate nucleotides into multiple DNA template molecules in a single reaction cycle was investigated. 30 minute incubations were run with 4 nM purified enzyme in the presence of 20 nM 10A hairpin DNA (^32P-labelled) and 2 μM ffT-N3-cy3, aliquots of the reaction mixture were withdrawn at 0, 15, 30, 60, 180, 480, 900 and 1800 s intervals and run on a 12% acrylamide gel.
The band intensities were quantified using Imagequant and the fluorescence intensity, converted into percentage completion (based on the relative intensities of the starting material and final product bands on the gel) plotted versus incubation time to generate the timecourses shown in FIG. 5.

This is an account of results in patent publication US10059928B2, “Polymerases” (Illumina Cambridge Limited, priority 2005, dated 2018).

As a reminder, the Kd is a measure of binding affinity in units of concentration.

B1: wild-type 9°N-7 polymerase: Wild-type family B DNA polymerase from Thermococcus sp. 9°N-7 (protein, UniProt Q56366 1-775, looked up)
DNA polymerase: MILDTDYITENGKPVIRVFKKENGEFKIEYDRTFEPYFYALLKDDSAIEDVKKVTAKRHGTVVKVKRAEKVQKKFLGRPIEVWKLYFNHPQDVPAIRDRIRAHPAVVDIYEYDIPFAKRYLIDKGLIPMEGDEELTMLAFDIETLYHEGEEFGTGPILMISYADGSEARVITWKKIDLPYVDVVSTEKEMIKRFLRVVREKDPDVLITYNGDNFDFAYLKKRCEELGIKFTLGRDGSEPKIQRMGDRFAVEVKGRIHFDLYPVIRRTINLPTYTLEAVYEAVFGKPKEKVYAEEIAQAWESGEGLERVARYSMEDAKVTYELGREFFPMEAQLSRLIGQSLWDVSRSSTGNLVEWFLLRKAYKRNELAPNKPDERELARRRGGYAGGYVKEPERGLWDNIVYLDFRSLYPSIIITHNVSPDTLNREGCKEYDVAPEVGHKFCKDFPGFIPSLLGDLLEERQKIKRKMKATVDPLEKKLLDYRQRAIKILANSFYGYYGYAKARWYCKECAESVTAWGREYIEMVIRELEEKFGFKVLYADTDGLHATIPGADAETVKKKAKEFLKYINPKLPGLLELEYEGFYVRGFFVTKKKYAVIDEEGKITTRGLEIVRRDWSEIAKETQARVLEAILKHGDVEEAVRIVKEVTEKLSKYEVPPEKLVIHEQITRDLRDYKATGPHVAVAKRLAARGVKIRPGTVISYIVLKGSGRIGDRAIPADEFDPTKHRYDAEYYIENQVLPAVERILKAFGYRKEDLRYQKTKQVGLGAWLKVKGKK
Take B1: the equilibrium dissociation constant (Kd) in series [1] is 0.05 nM.

B2: R743A: 9°N-7 YAV C223S exo- polymerase with alanine substitution at Arg743 in the thumb subdomain (protein)
chain: MILDTDYITENGKPVIRVFKKENGEFKIEYDRTFEPYFYALLKDDSAIEDVKKVTAKRHGTVVKVKRAEKVQKKFLGRPIEVWKLYFNHPQDVPAIRDRIRAHPAVVDIYEYDIPFAKRYLIDKGLIPMEGDEELTMLAFSISTLYHEGEEFGTGPILMISYADGSEARVITWKKIDLPYVDVVSTEKEMIKRFLRVVREKDPDVLITYNGDNFDFAYLKKRSEELGIKFTLGRDGSEPKIQRMGDRFAVEVKGRIHFDLYPVIRRTINLPTYTLEAVYEAVFGKPKEKVYAEEIAQAWESGEGLERVARYSMEDAKVTYELGREFFPMEAQLSRLIGQSLWDVSRSSTGNLVEWFLLRKAYKRNELAPNKPDERELARRRGGYAGGYVKEPERGLWDNIVYLDFRSYAVSIIITHNVSPDTLNREGCKEYDVAPEVGHKFCKDFPGFIPSLLGDLLEERQKIKRKMKATVDPLEKKLLDYRQRLIKILANSFYGYYGYAKARWYCKECAESVTAWGREYIEMVIRELEEKFGFKVLYADTDGLHATIPGADAETVKKKAKEFLKYINPKLPGLLELEYEGFYVRGFFVTKKKYAVIDEEGKITTRGLEIVRRDWSEIAKETQARVLEAILKHGDVEEAVRIVKEVTEKLSKYEVPPEKLVIHEQITRDLRDYKATGPHVAVAKRLAARGVKIRPGTVISYIVLKGSGRIGDRAIPADEFDPTKHRYDAEYYIENQVLPAVEAILKAFGYRKEDLRYQKTKQVGLGAWLKVKGKK
modifications: Codon optimised thumb mutant polymerase
notes: 9°N-7 YAV C223S exo- polymerase with alanine substitution at Arg743 in the thumb subdomain
Take B2: in series [2], the “activity relative to YAV (in words)” value is reported as “comparable activities to YAV”. The kpol in series [3] stood at 0.068 s⁻¹. In addition, in series [4], the “improvement in level of incorporation over clone 9” value is given as roughly 45%. In addition, the “amplitude of the burst (exponential) phase, percentage completion” value in series [5] (20 nM 10A hairpin DNA (ratio 5:1)) is reported as roughly 90%. Further, the “observed rate constant kobs for the burst phase” value in series [5] (crude fitting of timecourses, 20 nM 10A hairpin DNA) is roughly 0.004 s⁻¹.
